Sequences and labels used below:
B1: Hairpin Ribozyme (parent)
chain: GUCCUCUUUCACGUGCGCGUGAAAGAGAGAAGUGAACCAGAGAAACACACGUUGUGGUAUAUUACCUGGUA

These results are taken from the RNAGym collection of RNA variant scans (doi:10.7554/elife.80360).

In the data set the parent is B1. The data set can be described thus: self-cleavage, relative activity (ratio to wild type); higher = more cleavage; co-transcriptional.
Consider G25C G56U, for which the self-cleavage amounted to 0.153.
In the case of G25C G56C, the self-cleavage stood at 0.148.
Take A26G C50U: the self-cleavage stood at 0.347.
As for A26G G32U, the self-cleavage is 0.121.
For A26G G32C, the self-cleavage was 0.144.
Regarding G25C G42U, the self-cleavage came to 0.182.
As for G25C G42C, the self-cleavage was found to be 0.236.
As to G25C A30U, the self-cleavage is 0.116.
For G25C A30G, the self-cleavage was 0.157.
In the case of G25C A30C it was 0.21; in that of A26U A43C, 0.098; in that of A26C G40C, 0.11.
Consider A26C G40U, for which the self-cleavage stood at 0.114.
With G25U A28C, the self-cleavage amounted to 0.233.
G25U A28G: the self-cleavage was 0.971.
Regarding G27A C38G, the self-cleavage worked out at 0.0969.
As for A26C A39U, the self-cleavage worked out at 0.303.
For the variant A26C A39C, the self-cleavage amounted to 0.47.
Turning to A26U G69C, the self-cleavage came out at 0.247.
For G27A A41C, the self-cleavage came to 0.602.
For G27A A41U, the self-cleavage turned out to be 0.744.
Consider G27A A41G, for which the self-cleavage came out at 0.261.
For the variant A26C A44G, the self-cleavage turned out to be 0.124.
Turning to A26C A44C, the self-cleavage worked out at 0.0715.
On to A26U U60C, for which the self-cleavage worked out at 0.898.
Take A26U U60G: the self-cleavage came out at 0.437.
As for A26C A47U, the self-cleavage turned out to be 0.0646.
For A26C A47G, the self-cleavage came to 0.187.
A26U G34U: the self-cleavage is 1.37.
G27A A59C: the self-cleavage came to 0.103.
In the case of G27A A59U it was 0.185.
Consider G27A A59G, for which the self-cleavage is 0.191.
In the case of A26U G68A it was 0.23.
For G25C G27C, the self-cleavage turned out to be 0.171.
The result for G27A C50A reads 0.104; that for A26G G40C, 0.167.
The result for A26G G40A reads 0.302; that for A26C C46A, 0.175; that for G25C A41C, 0.622.
For the variant G25C A41G, the self-cleavage stood at 0.298.
Regarding G25C U67C, the self-cleavage was 0.134.
As to G25C A47C, the self-cleavage was 0.217.
In the case of G25U A26C it was 0.21; in that of G25U A26G, 0.421.
For G25U A36G, the self-cleavage stood at 0.639.
With G25C A39G, the self-cleavage stood at 0.168.
For the variant A26G A71G, the self-cleavage came to 0.935.
Regarding A26G A71U, the self-cleavage was 0.823.
As to G25A U52C, the self-cleavage was 0.7.
In the case of G25A G54C, the self-cleavage worked out at 0.219.
Regarding G25A G54U, the self-cleavage came to 0.392.
Regarding G25A G54A, the self-cleavage turned out to be 0.292.
Consider G27C A45C, for which the self-cleavage worked out at 0.11.
With A26C C38U, the self-cleavage turned out to be 0.416.
Regarding A26C C38G, the self-cleavage is 0.182.
Consider A26C C38A, for which the self-cleavage came to 0.163.
G25A U62G: the self-cleavage came to 0.125.
For A26U A30C, the self-cleavage stood at 0.205.
G27C A49C: the self-cleavage was 0.203.
In the case of G27C A49G it was 0.075.
G25C A49C: the self-cleavage came to 0.136.
In the case of A26U C50A it was 0.209; in that of A26U C50G, 0.148.
In the case of A26C G69C, the self-cleavage was determined as 0.212.
The result for A26C G69U reads 0.108; that for G25U U58C, 0.503.
In the case of G25U U58A, the self-cleavage is 0.447.
On to G25C A71C, for which the self-cleavage came to 1.02.
In the case of G25U G68A, the self-cleavage worked out at 0.183.
As to G25U G56A, the self-cleavage stood at 0.21.
The result for G25U G56U reads 0.223; that for G25U G56C, 0.17; that for G25C G54C, 0.139.
The result for A26G G42A reads 0.245.
The result for A26G G42C reads 0.357.
Regarding A26G G42U, the self-cleavage stood at 0.371.
As for G25C G32C, the self-cleavage came out at 0.116.
On to G25A G29C, for which the self-cleavage came to 0.118.
In the case of G25A G29U it was 0.164.
On to G27A C37A, for which the self-cleavage turned out to be 0.219.
The result for G27A C37U reads 0.32; that for G25C U53A, 0.497; that for A26C G51U, 0.919.
In the case of A26C G51C, the self-cleavage stood at 0.714.
In the case of G25A A39G it was 0.192.
G25A A39U: the self-cleavage was determined as 0.285.
In the case of A26U C48U, the self-cleavage is 0.0687.
A26G U60A: the self-cleavage is 0.763.
In the case of A26G U60C it was 0.963; in that of G27C A35U, 0.0854.
Regarding G25A A45G, the self-cleavage worked out at 0.24.
As to A26C G57C, the self-cleavage came out at 0.0672.
Turning to G27C A47U, the self-cleavage is 0.0683.
Consider G25U G29C, for which the self-cleavage amounted to 0.153.
With G25U G29A, the self-cleavage came out at 0.149.
In the case of G27A G51C, the self-cleavage worked out at 0.238.
In the case of A26U U55A, the self-cleavage was 0.082.
Take G27A U70C: the self-cleavage turned out to be 0.391.
In the case of G27A U70A it was 0.426; in that of A26U A59U, 0.108; in that of G25C U33A, 0.0816.
Turning to G25A G42C, the self-cleavage stood at 0.182.
On to G25A C66G, for which the self-cleavage is 0.133.
The result for G25U U52A reads 0.55; that for G25U G57U, 0.179; that for A26C A59C, 0.0674.
As to A26U A45C, the self-cleavage amounted to 0.223.
Take A26G G68U: the self-cleavage came out at 0.131.
The result for G25C C48A reads 0.129.
Take G25C C48G: the self-cleavage came out at 0.127.
Take G25C C48U: the self-cleavage was 0.187.
For the variant A26U G56U, the self-cleavage is 0.279.
For A26U G56A, the self-cleavage is 0.129.
A26G A45U: the self-cleavage is 0.148.
As to G25U A35G, the self-cleavage worked out at 0.656.
Consider G25C A43G, for which the self-cleavage was determined as 0.116.
For G27A G40U, the self-cleavage stood at 0.179.
As for A26U G32C, the self-cleavage is 0.128.
For the variant A26U G32A, the self-cleavage is 0.154.
In the case of G25A G32A it was 0.216; in that of G27A C66U, 0.13.
As for G25A A43C, the self-cleavage stood at 0.136.
In the case of G25A A43U it was 0.186; in that of A26U U63G, 0.158; in that of A26G A31G, 0.884.
The result for G25U G34A reads 0.897; that for G25U G42A, 0.144.
On to G25A A41C, for which the self-cleavage was found to be 0.814.
G25A A41U: the self-cleavage was determined as 0.85.
For G25C G57U, the self-cleavage was 0.216.
Consider G25C G57C, for which the self-cleavage stood at 0.12.
For the variant A26G U58C, the self-cleavage is 1.02.
In the case of A26C U67G it was 0.196.
As for G25U G54A, the self-cleavage turned out to be 0.496.
Consider A26C A36C, for which the self-cleavage was 0.488.
Consider A26U A49C, for which the self-cleavage came to 0.157.
On to A26G C48U, for which the self-cleavage turned out to be 0.18.
As to A26G C48G, the self-cleavage was found to be 0.14.
Regarding A26C C48G, the self-cleavage came out at 0.138.
Take G25U A47U: the self-cleavage is 0.205.
For the variant A26G G56A, the self-cleavage is 0.271.
For the variant G25U A49G, the self-cleavage came out at 0.217.
As for G25U A49C, the self-cleavage is 0.179.
As to G27A A47U, the self-cleavage came out at 0.111.
The result for G25U U55C reads 0.205; that for A26C G68A, 0.117; that for G25U A59G, 0.108.
As to G27C A59C, the self-cleavage worked out at 0.104.
Take A26U U62C: the self-cleavage was found to be 0.192.
The result for A26U U62A reads 0.214; that for G27A U33A, 0.0964; that for G27A A43C, 0.0674.
As for G25A G34C, the self-cleavage worked out at 1.34.
On to A26G A36G, for which the self-cleavage was found to be 0.769.
Regarding A26G U62G, the self-cleavage worked out at 0.0228.
In the case of A26G U62C, the self-cleavage came out at 0.277.
For A26G U62A, the self-cleavage is 0.228.
On to G27A U55C, for which the self-cleavage is 0.211.
The result for G27A U55G reads 0.144; that for G27A A61C, 0.107; that for G25U G27U, 0.17.
In the case of G25U G27A, the self-cleavage stood at 0.131.
Regarding G25U G27C, the self-cleavage amounted to 0.254.
Take A26U G54A: the self-cleavage stood at 0.318.
The result for G25A A35U reads 0.39; that for G25A A35G, 0.738; that for G27C A30U, 0.255.
